Sequences and labels used below:
T1: FcγRIIb, extracellular domain with C-terminal His tag (human, UniProt P31994 43-217)
T1 construct: extracellular domain; Soluble receptor expressed in FreeStyle293 cells; analyte in Biacore; also called FcgRIIb; 2b; not shown: C-terminal His tag
T1 sequence (looked up): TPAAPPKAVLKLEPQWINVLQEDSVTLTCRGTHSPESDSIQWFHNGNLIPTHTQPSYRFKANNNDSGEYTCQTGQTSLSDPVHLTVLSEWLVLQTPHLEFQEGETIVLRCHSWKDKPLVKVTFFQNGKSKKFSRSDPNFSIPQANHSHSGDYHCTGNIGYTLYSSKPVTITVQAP

T2: FcγRIIa H (FcγRIIa, type H allotype, His at position 131), extracellular domain with C-terminal His tag (human, UniProt P12318 34-217)
T2 construct: extracellular domain; Soluble receptor expressed in FreeStyle293 cells; analyte in Biacore; also called FcgRIIa H; 2aH; not shown: C-terminal His tag
T2 sequence (looked up): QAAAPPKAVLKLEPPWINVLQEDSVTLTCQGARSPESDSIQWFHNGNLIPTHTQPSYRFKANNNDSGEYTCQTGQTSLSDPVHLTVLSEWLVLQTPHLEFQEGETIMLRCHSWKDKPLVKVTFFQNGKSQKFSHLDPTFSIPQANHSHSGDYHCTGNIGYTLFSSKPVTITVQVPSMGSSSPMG

B1: GpH7-A5/GpH7-B3 variant D270_14T/GpL16-k0 (antibody, human IgG1, kappa)
heavy 1: not shown
heavy 2: not shown
light: DIVMTQSPLSLPVTPGEPASISCQASESLVHSNRNTYLHWYLQKPGQSPQLLIYKVSNRFSGVPDRFSGSGSGTDFTLKISRVEAEDVGVYYCSQNTHVPPTFGQGTKVEIERTVAAPSVFIFPPSDEQLKSGTASVVCLLNNFYPREAKVQWKVDNALQSGNSQESVTEQDSKDSTYSLSSTLTLSKADYEKHKVYACEVTHQGLSSPVTKSFNRGEC
notes: Heterodimerized IgG1; mutation only in the GpH7-B3 chain; also called He Ab
B2: GpH7-A5/GpH7-B3 variant D270_19Q/GpL16-k0 (antibody, human IgG1, kappa)
heavy 1: not shown
heavy 2: not shown
light: B1 light
notes: as for B1
B3: GpH7-A5/GpH7-B3 variant E269_18N/GpL16-k0 (antibody, human IgG1, kappa)
heavy 1: not shown
heavy 2: not shown
light: B1 light
notes: as for B1
B4: GpH7-A5/GpH7-B3 variant P271_20W/GpL16-k0 (antibody, human IgG1, kappa)
heavy 1: not shown
heavy 2: not shown
light: B1 light
notes: as for B1
B5: GpH7-A5/GpH7-B3 variant E269_16H/GpL16-k0 (antibody, human IgG1, kappa)
heavy 1: not shown
heavy 2: not shown
light: B1 light
notes: as for B1
B6: GpH7-A5/GpH7-B3 variant E269_07I/GpL16-k0 (antibody, human IgG1, kappa)
heavy 1: not shown
heavy 2: not shown
light: B1 light
notes: as for B1
B7: GpH7-A5/GpH7-B3 variant Q295_16H/GpL16-k0 (antibody, human IgG1, kappa)
heavy 1: not shown
heavy 2: not shown
light: B1 light
notes: as for B1
B8: GpH7-A5/GpH7-B3 variant Q295_20W/GpL16-k0 (antibody, human IgG1, kappa)
heavy 1: not shown
heavy 2: not shown
light: B1 light
notes: as for B1
B9: GpH7-A5/GpH7-B3 variant E269_06M/GpL16-k0 (antibody, human IgG1, kappa)
heavy 1: not shown
heavy 2: not shown
light: B1 light
notes: as for B1
B10: GpH7-A5/GpH7-B3 variant P271_15Y/GpL16-k0 (antibody, human IgG1, kappa)
heavy 1: not shown
heavy 2: not shown
light: B1 light
notes: as for B1
B11: GpH7-A5/GpH7-B3 variant Q295_03V/GpL16-k0 (antibody, human IgG1, kappa)
heavy 1: not shown
heavy 2: not shown
light: B1 light
notes: as for B1
B12: GpH7-A5/GpH7-B3 variant E269_11K/GpL16-k0 (antibody, human IgG1, kappa)
heavy 1: not shown
heavy 2: not shown
light: B1 light
notes: as for B1
B13: GpH7-A5/GpH7-B3 variant Q295_13S/GpL16-k0 (antibody, human IgG1, kappa)
heavy 1: not shown
heavy 2: not shown
light: B1 light
notes: as for B1
B14: GpH7-A5/GpH7-B3 variant D270_18N/GpL16-k0 (antibody, human IgG1, kappa)
heavy 1: not shown
heavy 2: not shown
light: B1 light
notes: as for B1
B15: GpH7-A5/GpH7-B3 variant D270_16H/GpL16-k0 (antibody, human IgG1, kappa)
heavy 1: not shown
heavy 2: not shown
light: B1 light
notes: as for B1
B16: GpH7-A5/GpH7-B3 variant Q295_11K/GpL16-k0 (antibody, human IgG1, kappa)
heavy 1: not shown
heavy 2: not shown
light: B1 light
notes: as for B1

One assay concerns the target T1, FcγRIIb, extracellular domain with …. The assay is described as follows: SPR (Biacore), captured antibody, FcγR as analyte.
With B1, the He/Con_2b was 57.8 relative, GpH7-A5/GpH7-B3/GpL16-k0 = 100.
On the same count and under the same terms, the same measure for B2: 48 relative, GpH7-A5/GpH7-B3/GpL16-k0 = 100; for B3: 44.8 relative, GpH7-A5/GpH7-B3/GpL16-k0 = 100; for B4: 58.1 relative, GpH7-A5/GpH7-B3/GpL16-k0 = 100.
On the same count and under the same terms, the same measure for B5: 38.5 relative, GpH7-A5/GpH7-B3/GpL16-k0 = 100.
For the molecule B6, the He/Con_2b is 43.9 relative, GpH7-A5/GpH7-B3/GpL16-k0 = 100.
As for B7, the He/Con_2b was 62.7 relative, GpH7-A5/GpH7-B3/GpL16-k0 = 100.
B8: the He/Con_2b was 44.4 relative, GpH7-A5/GpH7-B3/GpL16-k0 = 100.
The same measure, in the same setting: then B9, with 46.7 relative, GpH7-A5/GpH7-B3/GpL16-k0 = 100; and B10, with 52.3 relative, GpH7-A5/GpH7-B3/GpL16-k0 = 100; and B11, with 75.7 relative, GpH7-A5/GpH7-B3/GpL16-k0 = 100.
Same read-out and setting: then B12, with 17.8 relative, GpH7-A5/GpH7-B3/GpL16-k0 = 100.
The same measure, in the same setting: the same measure for B13: 56.9 relative, GpH7-A5/GpH7-B3/GpL16-k0 = 100.
Turning to B14, the He/Con_2b is 40.3 relative, GpH7-A5/GpH7-B3/GpL16-k0 = 100.
Still for that read-out and setting: the same measure for B15: 47.2 relative, GpH7-A5/GpH7-B3/GpL16-k0 = 100.
For B16, the He/Con_2b was 70.4 relative, GpH7-A5/GpH7-B3/GpL16-k0 = 100.

For another assay, the target named is T2, FcγRIIa H (FcγRIIa, type H allotype, …). The assay is described as follows: SPR (Biacore), captured antibody, FcγR as analyte.
On to B1, for which the He/Con_2aH was 75.3 relative, GpH7-A5/GpH7-B3/GpL16-k0 = 100.
For the molecule B2, the He/Con_2aH is 85 relative, GpH7-A5/GpH7-B3/GpL16-k0 = 100.
With B3, the He/Con_2aH is 64.4 relative, GpH7-A5/GpH7-B3/GpL16-k0 = 100.
On to B4, for which the He/Con_2aH was 77.4 relative, GpH7-A5/GpH7-B3/GpL16-k0 = 100.
The same measure, in the same setting: the same measure for B5: 59 relative, GpH7-A5/GpH7-B3/GpL16-k0 = 100; for B6: 66.6 relative, GpH7-A5/GpH7-B3/GpL16-k0 = 100.
Consider B7, for which the He/Con_2aH was 78.6 relative, GpH7-A5/GpH7-B3/GpL16-k0 = 100.
Still for that read-out and setting: the same measure for B8: 55.6 relative, GpH7-A5/GpH7-B3/GpL16-k0 = 100; for B9: 73.6 relative, GpH7-A5/GpH7-B3/GpL16-k0 = 100; for B10: 64.6 relative, GpH7-A5/GpH7-B3/GpL16-k0 = 100.
The same measure, in the same setting: then B11, with 92 relative, GpH7-A5/GpH7-B3/GpL16-k0 = 100; and B12, with 51.1 relative, GpH7-A5/GpH7-B3/GpL16-k0 = 100; and B13, with 69.4 relative, GpH7-A5/GpH7-B3/GpL16-k0 = 100.
On to B14, for which the He/Con_2aH is 62.5 relative, GpH7-A5/GpH7-B3/GpL16-k0 = 100.
The same measure, in the same setting: then B15, with 71.5 relative, GpH7-A5/GpH7-B3/GpL16-k0 = 100; and B16, with 89.4 relative, GpH7-A5/GpH7-B3/GpL16-k0 = 100.

For another assay the target is unchanged. Nature of the assay: ratio of He/Con_2aH to He/Con_2b (FcγRIIa H over FcγRIIb), SPR.
B1: the “He_2aH/2b (IIaH/IIb)” value is 1.3.
As to B2, the “He_2aH/2b (IIaH/IIb)” value was 1.77.
B3: the “He_2aH/2b (IIaH/IIb)” value was determined as 1.44.
Still for that read-out and setting: then B4, with 1.33; and B5, with 1.53.
Still for that read-out and setting: then B6, with 1.52; and B7, with 1.25; and B8, with 1.25.
In the case of B9, the “He_2aH/2b (IIaH/IIb)” value is 1.58.
B10: the “He_2aH/2b (IIaH/IIb)” value worked out at 1.24.
Still for that read-out and setting: then B11, with 1.22; and B12, with 2.87.
As for B13, the “He_2aH/2b (IIaH/IIb)” value came out at 1.22.
As for B14, the “He_2aH/2b (IIaH/IIb)” value stood at 1.55.
Turning to B15, the “He_2aH/2b (IIaH/IIb)” value turned out to be 1.51.
Take B16: the “He_2aH/2b (IIaH/IIb)” value turned out to be 1.27.

The record behind these values is US20180155451A1 (published 2018).
